This is an account of results in patent publication US20230365711A1 (Hoffmann-La Roche, published 2023).

In experiment [1] the target is T1, huNABA-avi-his (hybrid protein N-A1-B3-A2: N and A1 domains of human BGP, B3 domain of human CEA, A2 domain … (human, biotinylated at the avi tag (in vivo, co-transfected biotin ligase))).
T1 construct: also called NABA-avi-his reagent; biotinylated NABA
T1 chain: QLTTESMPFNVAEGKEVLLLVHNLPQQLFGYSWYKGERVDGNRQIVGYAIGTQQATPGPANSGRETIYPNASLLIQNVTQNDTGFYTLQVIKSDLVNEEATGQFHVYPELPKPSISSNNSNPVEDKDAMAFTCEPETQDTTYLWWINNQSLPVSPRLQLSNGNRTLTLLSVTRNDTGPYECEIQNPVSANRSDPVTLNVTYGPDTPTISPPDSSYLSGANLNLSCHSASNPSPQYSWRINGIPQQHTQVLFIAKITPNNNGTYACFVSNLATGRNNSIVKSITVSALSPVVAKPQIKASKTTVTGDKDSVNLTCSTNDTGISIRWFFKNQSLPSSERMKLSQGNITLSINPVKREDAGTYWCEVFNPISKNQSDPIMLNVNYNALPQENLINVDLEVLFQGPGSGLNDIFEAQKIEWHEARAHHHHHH
In words: Proteon SPR, antibody analyte on biotinylated NABA (Neutravidin chip). The text has this: (§1) Shown in FIG. 22 are Proteon (Biacore) sensorgrams obtained for the binding of the CDR-H3 antibody variants to the CEA antigen-harbouring chimeric protein NABA. […] The affinity matured precursor clone 5HFF12 and the parental antibody CH7A were included for direct comparison. All antibodies tested in this assay had 2F1 as the light chain. […] The relative affinity of each, measured in the bivalent form, is as follows: 5HFF12>CH7A (Y98A/D99Y)>CH7A (Y98A)>CH7A>CH7A (E102Q)>CH7A (D99Y)>CH7A (D99H)>CH7A (A103T)>CH7A (V101F)>CH7A (W95Y).

Experiment [2] deals with T1, huNABA-avi-his (hybrid protein …). The experiment can be described thus: Proteon SPR, antibody analyte on biotinylated NABA (Neutravidin chip); column Ka (M).
Description: as §1

Experiment [3] has the same target. In words: Biacore, column Affinity, CDR-H3 rows; antigen not named on the sheet, NABA-avi-his per paragraph 230.
The target is the same in experiment [4]. In words: Biacore, Fab on immobilized NABA-avi-his; column Monovalent Affinity. In general terms: Surface plasmon resonance follows binding to a sensor surface in real time, without labels.
Experiment [5] deals with T2, human carcinoembryonic antigen (CEA), membrane-bound on cells (human, UniProt P06731 35-685).
T2 construct: whole, on cells; also called CEACAM-5; CD66e
T2 sequence (looked up): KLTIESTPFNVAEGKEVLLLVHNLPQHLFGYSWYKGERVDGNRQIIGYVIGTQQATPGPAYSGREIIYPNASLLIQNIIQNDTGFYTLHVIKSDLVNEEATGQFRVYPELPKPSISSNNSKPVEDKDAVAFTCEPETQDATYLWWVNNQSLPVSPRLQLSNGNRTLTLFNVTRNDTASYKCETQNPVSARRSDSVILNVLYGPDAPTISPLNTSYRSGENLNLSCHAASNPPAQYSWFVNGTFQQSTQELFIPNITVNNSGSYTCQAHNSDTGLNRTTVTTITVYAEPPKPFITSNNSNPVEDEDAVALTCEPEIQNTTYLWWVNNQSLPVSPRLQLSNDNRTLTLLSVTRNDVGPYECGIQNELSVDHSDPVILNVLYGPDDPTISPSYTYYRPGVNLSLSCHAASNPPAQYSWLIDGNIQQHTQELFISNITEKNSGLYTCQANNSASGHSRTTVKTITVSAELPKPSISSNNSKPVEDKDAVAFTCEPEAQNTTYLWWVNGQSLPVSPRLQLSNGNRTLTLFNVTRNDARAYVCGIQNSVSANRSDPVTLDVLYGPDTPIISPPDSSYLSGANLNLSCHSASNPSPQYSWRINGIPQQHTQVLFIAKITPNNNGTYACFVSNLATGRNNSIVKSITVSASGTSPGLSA
The experiment can be described thus: FACS on MKN45 cells.

In experiment [6] the target is T1, huNABA-avi-his (hybrid protein …). The experiment can be described thus: Proteon SPR, antibody analyte on biotinylated NABA (Neutravidin chip).
For experiment [7] the target is unchanged. In words: Proteon SPR, antibody analyte on biotinylated NABA (Neutravidin chip); column Ka (M).
The target is the same in experiment [8]. The experiment can be described thus: Biacore, column Affinity, CDR-L1 and CDR-L2 rows; antigen not named on the sheet, NABA-avi-his per paragraph 230.

B1: antibody with heavy chain CH7A (V101F) and light chain 2F1 (antibody, V domains shown)
VH: QVQLVQSGSELKKPGASVKVSCKASGYTFTEFGMNWVRQAPGQGLEWMGWINTKTGEATYVEEFKGRFVFSLDTSVSTAYLQISSLKAEDTAVYYCARWDFYDYFEAMDYWGQGTTVTVSS
VL: DIQMTQSPSSLSASVGDRVTITCKASAAVGTYVAWYQQKPGKAPKLLIYSASYRKRGVPSRFSGSGSGTDFTLTISSLQPEDFATYYCHQYYTYPLFTFGQGTKLEIKR
notes: Bivalent form
As to B1, the Kd in experiment [1] came to 3.18 nM. Besides, the kon in experiment [2] is 59400 M⁻¹ s⁻¹.

B2: 3E1 (Fab, V domains shown)
VH: QVQLVQSGSELKKPGASVKVSCKASGYTFTEFGMNWVRQAPGQGLEWMGWINTKTGEATYVEEFKGRFVFSLDTSVSTAYLQISSLKAEDTAVYYCARWDFVDYVEAMDYWGQGTTVTVSS
VL: DIQMTQSPSSLSASVGDRVTITCKASQNVGTNVAWYQQKPGKAPKLLIYSASYRYSGVPSRFSGSGSGTDFTLTISSLQPEDFATYYCHQYYTYPLFTFGQGTKLEIK
Regarding B2, the Kd in experiment [3] was determined as 1890 nM.

B3: H3 Full (5) 8 (Fab, V domains shown)
VH: QVQLVQSGSELKKPGASVKVSCKASGYTFTEFGMNWVRQAPGQGLEWMGWINTKTGEATYVEEFKGRFVFSLDTSVSTAYLQISSLKAEDTAVYYCARWDFFEYFKTMDYWGQGTTVTVSS
VL: DIQMTQSPSSLSASVGDRVTITCKASQNVGTNVAWYQQKPGKAPKLLIYSASYRYSGVPSRFSGSGSGTDFTLTISSLQPEDFATYYCHQYYTYPLFTFGQGTKLEIK
For B3, in experiment [4], the Kd is 51 nM, the koff is 0.0014 s⁻¹ and the kon turned out to be 27300 M⁻¹ s⁻¹. Besides, in experiment [3], the Kd worked out at 51 nM.

B4: 2D7 (Fab, V domains shown)
VH: QVQLVQSGSELKKPGASVKVSCKASGYTFTEFGMNWVRQAPGQGLEWMGWINTKTGEATYVEEFKGRFVFSLDTSVSTAYLQISSLKAEDTAVYYCARWDFYWYVEAMDYWGQGTTVTVSS
VL: DIQMTQSPSSLSASVGDRVTITCKASQNVGTNVAWYQQKPGKAPKLLIYSASYRYSGVPSRFSGSGSGTDFTLTISSLQPEDFATYYCHQYYTYPLFTFGQGTKLEIK
In turn, B4 registered a Kd in experiment [3] of 746 nM.

B5: anti-CEA antibody with heavy chain CH1A1 and light chain 2F1 (antibody, V domains shown)
VH: QVQLVQSGAEVKKPGASVKVSCKASGYTFTEFGMNWVRQAPGQGLEWMGWINTKTGEATYVEEFKGRVTFTLDTSTSTAYMELRSLRSDDTAVYYCARWDFYDYVEAMDYWGQGTTVTVSS
VL: DIQMTQSPSSLSASVGDRVTITCKASAAVGTYVAWYQQKPGKAPKLLIYSASYRKRGVPSRFSGSGSGTDFTLTISSLQPEDFATYYCHQYYTYPLFTFGQGTKLEIKR
notes: CH1A with M69F/T71L double point mutation; also called precursor clone CH1A1
With B5, the “EC50 (read off the curve)” value in experiment [5] was roughly 1 µg/mL. This molecule also yielded an equilibrium dissociation constant (Kd) in experiment [6] of 4.24 nM. Further, in experiment [7], the kon was 81900 M⁻¹ s⁻¹.

B6: H3 Full (5) 28 (Fab, V domains shown)
VH: QVQLVQSGSELKKPGASVKVSCKASGYTFTEFGMNWVRQAPGQGLEWMGWINTKTGEATYVEEFKGRFVFSLDTSVSTAYLQISSLKAEDTAVYYCARWDFFYYVQTMDYWGQGTTVTVSS
VL: DIQMTQSPSSLSASVGDRVTITCKASQNVGTNVAWYQQKPGKAPKLLIYSASYRYSGVPSRFSGSGSGTDFTLTISSLQPEDFATYYCHQYYTYPLFTFGQGTKLEIK
Consider B6, for which binding in experiment [3] was characterised by a dissociation constant (Kd) of 81 nM.

B7: pAC19 (2C6) (Fab, V domains shown)
VH: QVQLVQSGSELKKPGASVKVSCKASGYTFTEFGMNWVRQAPGQGLEWMGWINTKTGEATYVEEFKGRFVFSLDTSVSTAYLQISSLKAEDTAVYYCARWDFYDYVEAMDYWGQGTTVTVSS
VL: DIQMTQSPSSLSASVGDRVTITCKASKNVGTNVAWYQQKPGKAPKPLIYLASYPQIGVPSRFSGSGSGTDFTLTISSLQPEDFATYYCHQYYTYPLFTFGQGTKLEIK
B7 yielded a Kd in experiment [8] of 700 nM.

B8: antibody with heavy chain CH7A (Y98A) and light chain 2F1 (antibody, V domains shown)
VH: QVQLVQSGSELKKPGASVKVSCKASGYTFTEFGMNWVRQAPGQGLEWMGWINTKTGEATYVEEFKGRFVFSLDTSVSTAYLQISSLKAEDTAVYYCARWDFADYVEAMDYWGQGTTVTVSS
VL: DIQMTQSPSSLSASVGDRVTITCKASAAVGTYVAWYQQKPGKAPKLLIYSASYRKRGVPSRFSGSGSGTDFTLTISSLQPEDFATYYCHQYYTYPLFTFGQGTKLEIKR
notes: Bivalent form
In experiment [1], B8 yielded a Kd of 0.52 nM. The kon in experiment [2] was found to be 132000 M⁻¹ s⁻¹.

B9: H3 Full (5) 27 (Fab, V domains shown)
VH: QVQLVQSGSELKKPGASVKVSCKASGYTFTEFGMNWVRQAPGQGLEWMGWINTKTGEATYVEEFKGRFVFSLDTSVSTAYLQISSLKAEDTAVYYCARWDFSYYVEAMDYWGQGTTVTVSS
VL: DIQMTQSPSSLSASVGDRVTITCKASQNVGTNVAWYQQKPGKAPKLLIYSASYRYSGVPSRFSGSGSGTDFTLTISSLQPEDFATYYCHQYYTYPLFTFGQGTKLEIK
For B9, in experiment [3], binding was put at a Kd of 132 nM.

B10: L2D2 (Fab, V domains shown)
VH: QVQLVQSGSELKKPGASVKVSCKASGYTFTEFGMNWVRQAPGQGLEWMGWINTKTGEATYVEEFKGRFVFSLDTSVSTAYLQISSLKAEDTAVYYCARWDFYDYVEAMDYWGQGTTVTVSS
VL: DIQMTQSPSSLSASVGDRVTITCKASHNVGTNVAWYQQKPGKAPKLLIYSASHRYSGVPSRFSGSGSGTDFTLTISSLQPEDFATYYCHQYYTYPLFTFGQGTKLEIK
As for B10, the Kd in experiment [8] was found to be 2260 nM.

B11: 3A1 (Fab, V domains shown)
VH: QVQLVQSGSELKKPGASVKVSCKASGYTFTEFGMNWVRQAPGQGLEWMGWINTKTGEATYVEEFKGRFVFSLDTSVSTAYLQISSLKAEDTAVYYCARWDFYDYVEAMDYWGQGTTVTVSS
VL: DIQMTQSPSSLSASVGDRVTITCKASANVGNNVAWYQQKPGKAPKLLIYLASNRSGGVPSRFSGSGSGTDFTLTISSLQPEDFATYYCHQYYTYPLFTFGQGTKLEIK
notes: also called pAC21 (3A1); 3A1 wt/lc
In experiment [4], B11 gave a Kd of 250 nM, a koff of 0.0117 s⁻¹ and a kon of 46800 M⁻¹ s⁻¹. Also, the affinity in experiment [8], expressed as Kd, was 250 nM.

B12: pAC23 (2F11) (Fab, V domains shown)
VH: QVQLVQSGSELKKPGASVKVSCKASGYTFTEFGMNWVRQAPGQGLEWMGWINTKTGEATYVEEFKGRFVFSLDTSVSTAYLQISSLKAEDTAVYYCARWDFYDYVEAMDYWGQGTTVTVSS
VL: DIQMTQSPSSLSASVGDRVTITCKASQIASTNVAWYQQKPGKAPKLLIYWASYRYSGVPSRFSGSGSGTDFTLTISSLQPEDFATYYCHQYYTYPLFTFGQGTKLEIK
Regarding B12, in experiment [8], the Kd was 290 nM.

The term Kd denotes a measure of binding affinity in units of concentration. A lower Kd goes with higher affinity. Usually kon stands for the rate constant with which the complex forms. A higher kon goes with faster complex formation. As usually defined, the koff is a measure of how fast the partners let go of each other. A high value points to fast dissociation. For orientation: EC50 (read off the curve) means the concentration that produces a half-maximal response. Low values mean an effect from little substance, high ones a need for much substance.
